Values joined by “and” are separate entries in the source; they are usually repeats but may differ in a detail not shown here. Equal values may be shown once. Read-outs that look alike come from different tables or passages of the source.
Tests used:
[1] = target: desmin rod (human) (UniProt P17661); assay: co-sedimentation
[2] = target: full-length wild-type desmin (human) (UniProt P17661); assay: co-sedimentation
[3] = target: headless desmin (human) (UniProt P17661); assay: co-sedimentation
[4] = target: mutant desmin E245D (human) (UniProt P17661); assay: co-sedimentation
[5] = target: tailless desmin (human) (UniProt P17661); assay: co-sedimentation
[6] = target: N-terminal His-tagged recombinant nebulin encompassing modules 160–164 (human) (UniProt P20929); assay: ELISA
[7] = target: N-terminal His-tagged recombinant nebulin encompassing modules 160–164 (human) (UniProt P20929); assay: ELISA; remark: listed apart in the source

Work on “N-terminal His-tagged recombinant nebulin encompassing modules 160–164 (from UniProt P20929 1-8525) (domain or fragment)” yielded a sedimentation value (percent in the pellet, equimolar mixture) [1] of 70%, a nebulin bound at later time points (percent of total protein) [2] of 35% and a sedimentation value (percent in the pellet, equimolar mixture) [3] of 57%. The nebulin bound at later time points (percent of total protein) [4] was 20% and the sedimentation value (percent in the pellet, equimolar mixture) [5] was 29%.

With “full-length wild-type desmin (from UniProt P17661 1-470) (natural protein)” the Kd [6] was 18 nM and 14 nM.

Work on “mutant desmin E245D (from UniProt P17661 1-470) (natural protein)” yielded a Kd [6] of 8 nM and a Kd [7] of 2 nM.

“mutant desmin S46Y (from UniProt P17661 1-470) (natural protein)” was tested, and the Kd [6] was 19 nM.

“mutant desmin T453I (from UniProt P17661 1-470) (natural protein)” showed a Kd [6] of 11 nM.
